Test results reported in patent US20240409645A1.

T1: mouse IL-2Rγ (mouse) (UniProt P34902)
T1 sequence (looked up): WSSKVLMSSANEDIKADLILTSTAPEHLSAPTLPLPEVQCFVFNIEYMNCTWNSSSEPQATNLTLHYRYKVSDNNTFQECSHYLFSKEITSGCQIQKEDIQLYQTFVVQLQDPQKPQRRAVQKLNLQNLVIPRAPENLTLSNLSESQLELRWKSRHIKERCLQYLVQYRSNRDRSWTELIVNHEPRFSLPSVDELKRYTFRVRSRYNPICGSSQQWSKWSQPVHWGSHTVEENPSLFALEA


Molecular target: T1, mouse IL-2Rγ (mouse)
Test: PE binding ELISA, periplasmic extract on coated protein

Binder | OD (PE binding ELISA) [OD450 nm]
FJ1427_P035MP04A04 (VHH) VHH: QVQLVESGGGLVQAGESLRLSCAASGPTASRVAVAWFRQVPGKEREFVAVVNRPGTMTKYADSVKGRFTISRDSAKNTVYLQMNSLKPEDTAVYYCAADSVPYGRPYYFQTSAGNYDYWGQGTQVTVSS | 0.05
FJ1427_P035MP04A11 (VHH) VHH: QVQLVESGGGLVQAGESLRLSCAASGPTASRVAVAWFRQVPGKEREFVAVVNRPGTMTKYADSVKGRFTISRDSAKNTVYLQMNSLKPEDTAVYYCAADSVPYGRPYYFQTSAGNYDYWGQGTQVTVSS | 0.05
FJ1427_P035MP04C11 (VHH) VHH: QVQLVESGGGLVQHGGSLRLSCAASGPTFSRVAVGWFRQVPGKEREFVAVVNRPGSMTKYADSVKGRFNISRDTAKNTVYLQMNSLKPEDTAVYYCAADSVPYGRPYYFTTSAGDYDYWGQGTQVTVSS | 0.047
FJ1427_P035MP04D08 (VHH) VHH: QVQLVESGGGLVQAGESLRLSCAASGPTASRVAVAWFRQVPGKEREFVAVVNRPGTMTKYADSVKGRFTISRDSAKNTVYLQMNSLKPEDTAVYYCAADSVPYGRPYYFQTSAGNYDYWGQGTQVTVSS | 0.048
FJ1427_P035MP04A09 (VHH) VHH: QVQLVESGGGLVQAGGSLRLSCAASGRTFGAVAVGWFRQVPGKEREFVAAINRNGSATKYADSAKGRFTISRDNAESPVYLQMNSLKPEDTAIYYCAADSLPYGRPYYFQTSAGEYDYWGQGTQVTVSS | 0.049
FJ1427_P035MP04D11 (VHH) VHH: EVQLVESGGGLVQAGGSLRLSCAASGRTFGAVAVGWFRQVPGKEREFVAAINRSGSATKYADSVKGRFTISRDNAESPVFLQMNSLKPEDTAVYYCAADSLPYGRPYYFQTSAGEYDYWGQGTQVTVSS | 0.048
FJ1427_P035MP04B06 (VHH) VHH: QLQLVESGGGWVQVGESLRLSCVPSGRTFVSGIMGWFRQAPGKEREFVARIILNNNSTRYTDSVKGRFTISRDSAKNTMYLQMNTLRPEDTAVYYCAARDRYGSGNSLSPSAYDYWGQGTQVTVSS | 0.048
FJ1427_P035MP04A07 (VHH) VHH: QLQLVESGGGWVQVGESLRLSCAPSGRTFVSGIMGWFRQAPGKEREFVARIILNNNSTRYIDSVKGRFTISRDSAKNTMYLQMDSLRPEDTAVYYCAARDRYGSGNSLSPSAYDYWGQGTQVTVSS | 0.049
FJ1427_P035MP04C10 (VHH) VHH: QVQLQESGGGWVQVGESLRLSCVPSGRTFVSGIMGWFRQAPGKEREFVARIILNNNSTRYTDSVKGRFTISRDSAKNTMYLQMNTLRPEDTAVYYCAARDRYGSGNSLSPSAYDYWGQGTQVTVSS | 0.047
FJ1427_P035MP04B11 (VHH) VHH: EVQLVESGGGWVQVGESLRLSCAPSGRTFVSGIMGWFRQAPGKEREFVARIILNNNSTRYIDSVKGRFTISRDSAKNTMYLQMDSLRPEDTAVYYCAARDRYGSGNSLSPSAYDYWGQGTQVTVSS | 0.047
FJ1427_P035MP04C05 (VHH) VHH: QVQLVESGGGWVQVGESLRLSCAPSGRTFVSGIMGWFRQAPGKEREFVARIILNNNSTRYTDSVKGRFTISRDSAKDTMYLQMNTLRPEDTAVYYCAARDRYGSGNSLSPSAYDYWGQGTQVTVSS | 0.047
FJ1427_P035MP04A10 (VHH) VHH: EVQLVESGGGWVQVGESLRLSCAPSGRTFVSGIMGWFRQAPGKEREFVARIILNNNSTRYTDSVKGRFTISRDSAKNTMYLQMNTLRPEDTAVYYCAARDRYGSGNSLSPSAYDYWGQGTQVTVSS | 0.048
FJ1427_P035MP04B10 (VHH) VHH: EVQLVESGGGWVQVGESLRLSCAPSGRTFVSGIMGWFRQAPGKEREFVARIILNNNSTRYIDSVKGRFTISRDSAKNTMYLQMDSLRPEDTAVYYCAARDRYGSGNSLSPSAYDYWGQGTQVTVSL | 0.047
FJ1427_P035MP04D09 (VHH) VHH: QVQLVESGGGWVQVGESLRLSCAPSGRTFVRGIMGWFRQAPGKEREFVARIILNSNSTRYIDSVKGRFTISRDSAKNTMYLQMNSLRPEDTAVYYCAARDRYGSGNSLSPSAYDYWGQGTQVTVSS | 0.048
FJ1427_P035MP04C12 (VHH) VHH: EVQLVESGGGWVQVGESLRLSCAPSGRTFVSGIMGWFRQAPGKEREFVARIILNNNSTRYIDSVKGRFTISRDSAKNTMYLQMDSLRPEDTAVYYCAARDRYGSGNSLSPSAYDYWGQGTQVTVSS | 0.048
FJ1427_P035MP04B07 (VHH) VHH: EVQLVESGGGWVQVGESLRLSCAPSGRTFVSGIMGWFRQTPGKEREFVARIILNNNSTRYTDSVKGRFTISRDSAKNTLYLQMNTLRPEDTAVYYCAARDRYGSGNSLSPSAYDYWGQGTQVTVSS | 0.047

The remaining lines, values ahead:

OD (PE binding ELISA) [OD450 nm] | Binder
0.053 | FJ1427_P035MP04H08 (VHH) VHH: EVQLVESGGGLVQAGESLRLSCAASGPTASRVAVAWFRQVPGKEREFVAVVNRPGTMTKYADSVKGRFTISRDSAKNTVYLQMNSLKPEDTAVYYCAADSVPYGRPYYFQTSAGNYDYWGQGTQVTVSS
0.05 | FJ1427_P035MP04G09 (VHH) VHH: QVQLQESGGGLVQAGGSLRLSCAASGPTFSRVAVGWFRQVPGKEREFVAAVNRPATMTKYADSVKGRFTISRDNAKNTVDLQMNSMKPEDTAVYYCAADSVPYGRPYYFQTSAGEYDYWGQGTQVTVSS
0.049 | FJ1427_P035MP04G03 (VHH) VHH: EVQLVESGGGWVQVGESLRLSCAPSGRTFVSGIMGWFRQAPGKEREFVARIILNNNSTRYTDSVKGRFTISRDSAKNTMYLQMDSLRPEDTAVYYCAARDRYGSGNSLSPSAYDYWGQGTQVTVSS
0.049 | FJ1427_P035MP04H10 (VHH) VHH: QVQLVESGGGLVQAGGSLRLSCAPSGRTFVSGIMGWFRQAPGKEREFVARIILNNNSTRYIDSVKGRFTISRDSAKNTMYLQMDSLRPEDTAVYYCAARDRYGSGNSLSPSAYDYWGQGTQVTVSS
0.05 | FJ1427_P035MP04H09 (VHH) VHH: EVQLVESGGGWVQVGESLRLSCAPSGRTFVSGIMGWFRQAPGKEREFVARIILNNNSTRYTDSVKGRFTISRDSAKNTMYLQMNTLRPEDTAVYYCAARDRYGSGNSLSPSAYDYWGQGTQVTVSS
0.049 | FJ1427_P035MP04F11 (VHH) VHH: QVQLVESGGGWVQVGESLRLSCAPSGRTFVSGIMGWFRQTPGKEREFVARIILNNNSTRYTDSVKGRFTISRDSAKNTLYLQMNTLRPEDTAVYYCAARDRYGSGNSLSPSAYDYWGQGTQVTVSS
0.049 | FJ1427_P035MP04H11 (VHH) VHH: QVQLVESGGGWVQVGESPRLSCAPSGRTFVSGIMGWFRQTPGKEREFVARIILNNNSTRYTDSVKGRFTISRDSAKNTMYLQMNTLRPEDTAVYYCAARDRYGSGNSLSPSAYDYWGQGTQVTVSS
0.049 | FJ1427_P035MP04F09 (VHH) VHH: QVQLVESGGGWVQVGESLRLSCAPSGRTFVRGIMGWFRQAPGKEREFVARIILNNNSTRYTDSVKGRFTISRDSAKNTMWLQMDSLRPEDTAVYYCAARDRYGSGNSLSPSAYDYWGQGTQVTVSS
0.049 | FJ1427_P035MP04G07 (VHH) VHH: QVQLVESGGGWVQVGESLRLSCAPSGRTFVSGIMGWFRQAPGKEREFVARIILNNNSTRYTDSVKGRFTISRDSAKNTMYLQMNTLRPEDTAVYYCAARDRYGSGNSLSPSAYDYWGQGTQVTVSS
0.049 | FJ1427_P035MP04G08 (VHH) VHH: QVQLVESGGGWVQVGESLRLSCAPSGRTFVSGIMGWFRQAPGKEREFVARIILNNNSTRYTDSVKGRFTISRDSAKNTMYLQMDSLRPEDTAVYYCAARDRYGSGNSLSPSAYDYWGQGTQVTVSS
0.048 | FJ1427_P035MP04F10 (VHH) VHH: QLQLVESGGGWVQVGESLRLSCVPSGRTFVSGIMGWFRQAPGKEREFVARIISNNNSTRYTDSVKGRFTISRDSAKNTMYLQMNTLRPEDTAVYYCAARDRYGSGNSLSPSAYDYWGQGTQVTVSS
0.048 | FJ1427_P035MP04E04 (VHH) VHH: EVQLVESGGGWVQVGESLRLSCVPSGRTFVSGIMGWFRQAPGKEREFVARIILNSNSTRYTDSVKGRFTISRDSAKNTMYLQMNSLRPEDTAVYYCAARDRYGSGNSLSPSAYDYWGQGTQVTVSS
0.054 | FJ1427_P035MP04D12 (VHH) VHH: QVQLVESGGGWVQVGKSLRLSCAPSGRTFVSGIMGWFRQAPGKEREFVARIILNNNSTRYIDSVKGRFTISRDSAKNTMYLQMDSLRPEDTAVYYCAARDRYGSGNSLSPSAYDYWGQGTQVTVSS
0.049 | FJ1427_P035MP04G10 (VHH) VHH: QVQLVESGGGWVQVGESLRLSCAPSGRTFVSGIMGWFRQAPGKEREFVARIILNSNSTRYTDSAKGRFTISRDSAKNTMYLQMDSLRPEDTAVYYCAARDRYGSGNSLSPSAYDYWGQGTQVTVSS
0.048 | FJ1427_P035MP04G11 (VHH) VHH: QVQLVESGGGWVQVGESLRLSCAPSGRTFVSGIMGWFRQAPGEEREFVARIILNNNSTRYTDSVKGRFTISRDSAKNTMYLQMNTLRPEDTAVYYCAARDRYGSGNSLSPSAYDYWGQGTQVTVSS
